Data published in patent publication US20040058416A1.

Biological target: trkB-IgG immunoadhesin (human trkB extracellular domain fused to human IgG-1 Fc) (human)
Assay: competitive displacement of iodinated BDNF from trkB-IgG by unlabelled NT4/5

trkB-IgG immunoadhesin (human trkB extracellular domain fused to human IgG-1 Fc) (human), sequence (Q16620 32-423): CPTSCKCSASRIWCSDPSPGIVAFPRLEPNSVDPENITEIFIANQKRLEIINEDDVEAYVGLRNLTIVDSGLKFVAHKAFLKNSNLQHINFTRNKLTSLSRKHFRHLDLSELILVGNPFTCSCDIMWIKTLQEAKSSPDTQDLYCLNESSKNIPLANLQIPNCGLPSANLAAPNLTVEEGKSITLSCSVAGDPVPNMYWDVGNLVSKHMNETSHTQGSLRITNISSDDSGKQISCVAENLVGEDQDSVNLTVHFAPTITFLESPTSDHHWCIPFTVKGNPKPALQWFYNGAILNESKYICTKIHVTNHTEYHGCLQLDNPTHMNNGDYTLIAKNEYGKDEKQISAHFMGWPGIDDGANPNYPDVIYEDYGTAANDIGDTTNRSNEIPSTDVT

IC50: 0.2 nM
Substance: neurotrophin-4/5 (NT-4/5) (from UniProt P34130 81-210) (ligand)
